Results on one substance are retold here after publication PMC12310653.

For the assay, the target named is cathepsin L. In words: enzyme inhibition kinetics (Morrison equation for tight-binding inhibition); active cathepsin L (6 nM) incubated with varying concentrations of Amblyostatin-1 in 50 mM sodium acetate pH 5.5 at 37°C for 10 min; substrate Z-Phe-Arg-AMC; fluorescence read at 30°C over 15 min; residual Vmax fitted.

Turning to “recombinant Amblyostatin-1 (natural protein)”, the Ki – broadly, a dissociation constant, usually derived from enzyme kinetics or from competition with a known ligand – is 0.697 nM.
